Columns and labels:
[1] = target: T1, recombinant human N-terminal CCR6 Fc (human); assay: direct ELISA, Fc fusion coated at 2 µg/ml, anti-human F(ab')2-HRP
T1 construct: also called human CCR6-Fc; hsCCR6-Nter-Fc
Protocol: (§1) FIG. 8: Direct binding ELISA on immobilized recombinant human N-terminal CCR6 Fc. Binding of humanized 4H11 H5L1 antibody on human N terminus fragment of CCR6 was measured by direct ELISA. Various concentrations (ranging from 10 to 0.00006 μg/ml) of humanized 4H11 H5L1 in IgG1 and IgG4HS backbones were incubated with 2 μg/ml of either recombinant human N terCCR6-Fc tagged protein (FIG. 8A) or recombinant cynomologus N-terminal peptide Fc (FIG. 8B), coated overnight at 4° C. in a 96-well plate. Binding of humanized 4H11 H5L1 antibody to Nter CCR6-Fc protein was detected by horseradish peroxidase (HRP)-conjugated anti-human (Fab)′2-specific antibody.
(§2) A binding ELISA was performed to test the reactivity of 4H11 VH5/VL1 IgG1 and 4H11 VH5/VL1 IgG4HS antibodies on peptides consisting of the N-terminal region of CCR6 from human and cynomologus species. Briefly, 96 well-microtiter plates (Costar USA, distributor VWR AG, Nyon, Switzerland) were coated with 100 μl of recombinant human and cynomologus N-terminus peptide-Fc at 2 μg/ml in PBS. Plates were incubated overnight at 4° C. and were then blocked with PBS 2% BSA (Bovine Serum Albumine, PAA Laboratories, Pasching, Austria) at room temperature (RT) for one hour. The blocking solution was removed and various concentrations of 4H11 VH5/VL1 IgG1 and 4H11 VH5/VL1 IgG4HS were added. The plates were incubated at RT for 1 hour, then washed six times with PBS 0.01% Tween-20 (Sigma-Aldrich Chemie GmbH, Buchs, Switzerland) and a goat-anti human Ig F(ab′)2 fragment specific-HRP (Jackson ImmunoResearch Europe Ltd, Newmarket, UK). After washing, the plates were incubated with TMB substrate (Bio-Rad Laboratories AG, Reinach, Switzerland) to reveal antibody binding. The reaction was stopped by adding 2M H₂SO₄ and the optical density was read at 450 nm (OD 450 nm) on a Synergy HT2 spectrophotometer (Biotek, USA; distributor: WITTEC AG, Littau, Switzerland).

[2] = target: T2, recombinant cynomologus N-terminal CCR6 peptide Fc (cynomolgus monkey; human); assay: as above
T2 construct: It differs from the human construct only in the CCR6 N-terminus; also called Cyno CCR6-Fc; cynoCCR6-Nter-Fc
Protocol: as §1, §2

[3] = target: T1, recombinant human N-terminal CCR6 Fc; assay: SPR (BIAcore 2000), Fc-fused peptide immobilized on CM5 chip, antibody as analyte, bivalent analyte model
Protocol: (§3) Kinetic binding affinity constants (KD) were measured on Fc-fused huCCR6 N-terminal and cynoCCR6 N-terminal peptides with the 4H11 VH5/VL1 IgG4hs antibody as analyte. Same measurements were performed using the 4H11 VH5/VL1 IgG1 antibody and chimeric 4H11 antibody for comparison. Measurements were conducted on a BIAcore 2000 (GE Healthcare—BIAcore, GE Healthcare Europe GmbH, Glattbrugg, Switzerland) at room temperature, and analyzed with the BiaEvaluation software (BIAcore; v4.1, GE Healthcare Europe GmbH) using a bivalent analyte kinetic affinity model.
(§4) A CM5 research grade sensor chip (GE Healthcare Europe GmbH; ref. BR-1000-14) was activated by injecting 35 μl of a 1:1 N-hydroxysulfosuccinimide (NHS)/1-Ethyl-3-[3-dimethylaminopropyl]carbodiimide Hydrochloride (EDC) solution (v/v; 5 μl/min flow-rate; on flow paths 1 and 2). Fc-fused human or cynomologus CCR6 N-terminal peptides were diluted to a final concentration of 25 nM in acetate buffer pH 4.5 (GE Healthcare Europe GmbH, BR-1003-50; one pH unit below pI) and subsequently immobilized on the previously activated CM5 sensor chip by injecting 20 μl on both flow path 1 and 2 (5 μl/min); this corresponded to approximately 300 response units (RUs). The human or cynomologus CCR6 N-terminal peptides coupled CM5 sensor chip was then deactivated by injecting 35 μl of ethanolamine solution (5 μl/min). […]

[4] = target: T2, recombinant cynomologus N-terminal CCR6 …; assay: as above
Protocol: as §3, §4

[5] = target: T1, recombinant human N-terminal CCR6 Fc; assay: SPR (BIAcore 2000), Fc-fused human CCR6 N-terminal peptide immobilised on CM5, antibody as analyte, bivalent analyte model
Protocol: as §3, §4

[6] = target: T2, recombinant cynomologus N-terminal CCR6 …; assay: SPR (BIAcore 2000), Fc-fused cynomolgus CCR6 N-terminal peptide immobilised on CM5, antibody as analyte, bivalent analyte model
Protocol: as §3, §4

[7] = target: T3, human CCR6 (human, UniProt P51684 1-374); assay: flow cytometry blocking assay on CCR6-transfected BAF cells; blocked ligand: recombinant human CCL20 at 0.5 µg/ml, detected with biotinylated anti-CCL20 and streptavidin-APC
T3 construct: Full length human CCR6 on transfected BAF or CHO cells, or native on human PBMCs; also called hsCCR6; CCR6 receptor
T3 sequence: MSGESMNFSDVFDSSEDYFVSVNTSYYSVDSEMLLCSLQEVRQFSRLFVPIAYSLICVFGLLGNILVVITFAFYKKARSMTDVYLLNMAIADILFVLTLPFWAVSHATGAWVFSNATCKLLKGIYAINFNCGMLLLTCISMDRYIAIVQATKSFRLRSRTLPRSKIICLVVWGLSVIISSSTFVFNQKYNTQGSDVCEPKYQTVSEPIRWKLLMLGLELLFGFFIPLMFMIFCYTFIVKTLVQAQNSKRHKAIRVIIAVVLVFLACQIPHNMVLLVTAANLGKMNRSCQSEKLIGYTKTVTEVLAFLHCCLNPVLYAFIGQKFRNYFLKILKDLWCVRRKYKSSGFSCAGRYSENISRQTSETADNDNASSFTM
Protocol: Cells transfected with CCR6 were incubated at 4° C. for 20 minutes with humanized 4H11-VH5/VL1 serially diluted (from 100 to 0.00001 μg/ml) in FACS buffer containing 0.1% of azide. Cells were centrifuged and incubated at 4° C. for 20 minutes with 0.5 μg/ml of recombinant human CCL20. To detect CCL20 bound to CCR6, cells were incubated with a biotinylated goat anti-human CCL20, followed by incubation with Allophycocyanin (APC)-labelled Streptavidin diluted at 1/100 in FACS buffer containing 0.1% of azide. To evaluate blocking potential of humanized 4H11 VH5/VL1 IgG4HS, percentage of CCL20 was measured at each concentration of antibody. Maximum binding activity of CCL20 to CCR6 was calculated as a percentage of that seen for the isotype control.
To determine whether 4H11 VH5/VL1 IgG4HS neutralizes CCR6-mediated biological function through a direct inhibition of CCL20-CCR6 interaction, an assay using flow cytometry approach was set up. Briefly, BAF cells transfected with CCR6 were counted and diluted at 1*10⁶ cells/ml in FACS buffer containing 0.1% of azide. […] Then, CCL20 was detected using a biotinylated anti-human CCL20 (R&D Systems, clone BAF360) followed by allophycocyanin (APC)-labelled streptavidin diluted in FACS buffer+0.1% azide at 1 μg/ml and 1/100, respectively. Cells were washed two times in FACS buffer, 0.1% azide and samples were analysed by flow cytometry. […]

EC50 (read off the curve) [1]: ~0.06 µg/mL
EC50 (read off the curve) [2]: ~0.2 µg/mL
Kd [3]: 1.56 nM
Kd [4]: 4.67 nM
koff [5]: 0.000798 s⁻¹
kon [5]: 510000 M⁻¹ s⁻¹
koff [6]: 0.0015 s⁻¹
kon [6]: 320000 M⁻¹ s⁻¹
IC50 (read off the curve) [7]: ~0.5 µg/mL
B1: 4H11 VH5/VL1 IgG4HS antibody (antibody, V domains shown)
VH: EVQLVESGGGLVQPGGSLRLSCAASGFSFSDYYMYWVRQAPGKGLEWVSYITNGGITYYPDSVKGRFTISRDNSKNTLYLQMNSLRAEDTAVYYCTSPLRGAWFAYWGQGTLVTVSS
VL: DVVMTQSPLSLPVTLGQPASISCRSSQSIVHSNGNTYLEWYQQRPGQSPRLLIYKVSNRFSGVPDRFSGSGSGTDFTLKISRVEAEDVGVYYCFQGSHVPLTFGQGTKLEIK
notes: also called humanized 4H11 H5L1 IgG4HS; humanized 4H11-VH5/VL1

Source: patent publication US20180086836A1 (GLENMARK PHARMACEUTICALS S A, published 2018)
